From US20250041437A1 (SUN PHARMA ADVANCED RESEARCH, published 2025)
Residue numbers refer to the chain shown, from its start.

Tests used:
[1] = molecular target: T1, recombinant human MUC1-SEA (MUC1 antigen, Acrobiosystems, Cat: MU1-H52H9) (human, UniProt P15941 1039-1158); assay: SPR; MUC1 antigen captured on anti-His CM5 chip, antibody as analyte
T1 construct: Bought protein, captured on an anti-His chip (so His-tagged)
T1 sequence: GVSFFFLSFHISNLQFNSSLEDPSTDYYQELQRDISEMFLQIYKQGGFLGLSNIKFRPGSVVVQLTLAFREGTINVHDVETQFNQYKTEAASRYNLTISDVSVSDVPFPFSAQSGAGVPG

[2] = molecular target: T1, recombinant human MUC1-SEA (MUC1 …); assay: SPR, single cycle kinetics; MUC1 antigen captured on anti-His CM5 chip

B1: HM2 LM2 variant of humanized anti-MUC1 antibody SP66 (antibody, V domains shown)
VH: EIQLVQSGAEVKKPGSSVKVSCKVTGHSITRGSSWHWMRQAPGQGLEWIGYIHYGGGTSYNPSLKSRITITRDTSTNTAYMELSSLRSEDTAFYFCARYSYDITYRWFFDVWGQGTLVTVSS
VL: DIQMTQSPSTLSASVGDRVTITCRASQNIGTSIHWYQQKPGKAPKLLIKRASESISGVPSRFSGSGSGTEFTLTISSLQPDDFATYYCQQNNNWPLTFGQGTKVEVK
notes: Humanized IgG expressed in CHO cells; only variable domains tied to the variant
Kd [1]: 0.144 nM
koff [1]: 0.000255 s⁻¹
kon [1]: 1.77e+06 M⁻¹ s⁻¹

B2: humanized IgG1 anti-MUC1-SEA mAb (HM5 LM4) (antibody, V domains shown)
VH: B1 VH with A79F
VL: DIQMTQSPSTLSASVGDRVTITCRASQNIGTSIHWYQQKPGKAPKLLIKYASESISGVPSRFSGSGSGTEFTLTISSLQPDDFATYYCQQNNNWPLTFGQGTKVEIKR
notes: also called Humanized anti-MUC1 SEA IgG1; humanized IgG anti-MUC1-SEA mAb
Kd [2]: 0.0397 nM
koff [2]: 0.000281 s⁻¹
kon [2]: 7.07e+06 M⁻¹ s⁻¹
Kd [1]: 0.0298 nM
koff [1]: 0.00015 s⁻¹
kon [1]: 5.02e+06 M⁻¹ s⁻¹

B3: HM2 LM3 variant of humanized anti-MUC1 antibody SP66 (antibody, V domains shown)
VH: B1 VH
VL: B1 VL with R50Y
notes: as for B1
Kd [1]: 0.0598 nM
koff [1]: 0.000188 s⁻¹
kon [1]: 3.14e+06 M⁻¹ s⁻¹

B4: HM5 LM2 variant of humanized anti-MUC1 antibody SP66 (antibody, V domains shown)
VH: B1 VH with A79F
VL: B1 VL
notes: as for B1
Kd [1]: 0.0444 nM
koff [1]: 0.000213 s⁻¹
kon [1]: 4.8e+06 M⁻¹ s⁻¹

B5: HM4 LM2 variant of humanized anti-MUC1 antibody SP66 (antibody, V domains shown)
VH: B1 VH with I68A, I70L, A79F
VL: B1 VL
notes: as for B1
Kd [1]: 0.0639 nM
koff [1]: 0.000261 s⁻¹
kon [1]: 4.08e+06 M⁻¹ s⁻¹

B6: HM3 LM3 variant of humanized anti-MUC1 antibody SP66 (antibody, V domains shown)
VH: B1 VH with I68A, I70L
VL: B1 VL with R50Y
notes: as for B1
Kd [1]: 0.0775 nM
koff [1]: 0.00347 s⁻¹
kon [1]: 4.47e+07 M⁻¹ s⁻¹

B7: HM4 LM3 variant of humanized anti-MUC1 antibody SP66 (antibody, V domains shown)
VH: B1 VH with I68A, I70L, A79F
VL: B1 VL with R50Y
notes: as for B1
Kd [1]: 0.0826 nM
koff [1]: 0.000238 s⁻¹
kon [1]: 2.88e+06 M⁻¹ s⁻¹

B8: HM3 LM2 variant of humanized anti-MUC1 antibody SP66 (antibody, V domains shown)
VH: B1 VH with I68A, I70L
VL: B1 VL
notes: as for B1
Kd [1]: 0.186 nM
koff [1]: 0.000492 s⁻¹
kon [1]: 2.65e+06 M⁻¹ s⁻¹

B9: HM5 LM3 variant of humanized anti-MUC1 antibody SP66 (antibody, V domains shown)
VH: B1 VH with A79F
VL: B1 VL with R50Y
notes: as for B1
Kd [1]: 0.05 nM
koff [1]: 0.000198 s⁻¹
kon [1]: 3.97e+06 M⁻¹ s⁻¹
